“Also recorded” adds a separate entry of the source.
Columns and labels:
[1] = biological target: T1, recombinant human PACAP/VIP R-2 receptor (Homo sapiens, UniProt P41587); assay: stimulation of intracellular cAMP in cells expressing recombinant receptor; format: cell-based; conditions: FIG. 2B; for stimulation of intracellular cAMP formation (in words) / peptide concentration at maximum stimulation of cAMP levels: CHL cells; for stimulation of intracellular cAMP formation (in words): 45 minutes at 37° C., secretin, glucagon, GLP-I and GLP-II at μM concentrations
T1 construct: expressed in transfected cells
T1 sequence (P41587 24-438 R412H/G424A): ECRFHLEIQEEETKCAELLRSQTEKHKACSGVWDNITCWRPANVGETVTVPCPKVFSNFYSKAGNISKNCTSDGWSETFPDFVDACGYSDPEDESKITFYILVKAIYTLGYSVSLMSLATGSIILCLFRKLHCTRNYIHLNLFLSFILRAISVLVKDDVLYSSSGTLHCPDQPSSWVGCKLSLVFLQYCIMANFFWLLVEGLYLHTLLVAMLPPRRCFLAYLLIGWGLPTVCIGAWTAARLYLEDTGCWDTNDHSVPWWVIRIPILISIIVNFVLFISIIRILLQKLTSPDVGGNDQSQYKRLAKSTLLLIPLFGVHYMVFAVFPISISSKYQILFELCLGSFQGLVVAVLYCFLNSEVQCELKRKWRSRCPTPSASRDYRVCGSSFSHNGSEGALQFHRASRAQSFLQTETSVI
Text: Data points represent an average of two separate determinations (n=6), except for secretin (n=3) (see Materials and Methods). The variation among individual points was 5%.

[2] = biological target: T1, recombinant human PACAP/VIP R-2 receptor; assay: competitive binding with 125I-VIP, CHL cells expressing recombinant receptor
Experimental: Data points represent an average of two separate experiments (n=6). The variation among individual points was 10% (see Materials and Methods).
Each peptide concentration prepared in Hfank's balanced salt solution containing 20 mM HEPES, pH 7.4, 0.5% BSA and 0.1 mM phenylmethylsulfonyl-fluoride (PMSF) was added in triplicates to intact cells. Following the incubation, the cells were washed two times with ice-cold PBS, lysed with 1 N NaOH, and radioactivity measured in gamma counter. […] The variation among triplicate values was 10%.

[3] = system: CHL cells transfected with the vector alone; assay: binding of 125I-VIP to CHL cells transfected with vector alone; set-up: species or system Chinese hamster; conditions: data not shown
Experimental: Stable transformants were selected in the presence of G418 (0.8 mg/ml, GIBCO/BRL, Gaithersburg, Md.). […] Each peptide concentration prepared in Hfank's balanced salt solution containing 20 mM HEPES, pH 7.4, 0.5% BSA and 0.1 mM phenylmethylsulfonyl-fluoride (PMSF) was added in triplicates to intact cells. Following the incubation, the cells were washed two times with ice-cold PBS, lysed with 1 N NaOH, and radioactivity measured in gamma counter. […] The maximum specific binding was 5%. The variation among triplicate values was 10%.

[4] = system: CHL cells transfected with vector alone; assay: intracellular cAMP in CHL cells transfected with vector alone; format: cell-based, Chinese hamster; conditions: 1.1 μM; data not shown
Experimental: Cells were grown in 24-well plates to about 50% confluence. They were washed twice with the incubation buffer (Macy's 5A pH 7.4, containing 20 mM HEPES, 0.5% BSA and 0.5 mM IBMX) and incubated with different concentration of synthetic peptides added in triplicates (μM-pM) for 45 minutes at 37° C. In each experiment forskolin (10 μM, Sigma, St. Louis, Mo.) was added as a positive control. After removal of the medium, cells were washed twice with PBS and lysed with 95% ethanol. The suspension was centrifuged at 13,000 rpm for 3 minutes, and supernatants were taken to dryness in a speed vacuum. The contents were reconstituted in 0.05 M acetate buffer (0.5 ml) and cAMP levels measured using the cAMP Biotrak SPA system (Amersham, Arlington Heights, Ill.). The variation among triplicate values was 5%. The data shown in FIG. 2B are average of two separate incubations (n=6), except for secretin (n=3).

[5] = system: insulin secretion; conditions: Yada et al., 1994; cited from earlier work
[6] = 125I-VIP 44 pM, whole CHL cells

Substance	stimulation of intracellular cAMP formation (in words) [1]	displacement of 125I-VIP binding (in words) [2, 6]	also measured
secretin: synthetic secretin purchased from Peninsula; high sequence homology to PACAP and VIP	Some increase of intracellular cAMP levels		high concentration at which 125I-VIP binding was displaced ([2]; 125I-VIP, FIG. 2A): 3.8 µM
125I-VIP: radioiodinated VIP (2000 Ci/mmol, Amersham)			binding of 125I-VIP to vector-transfected cells [3]: did not bind
glucagon-like peptide-II [GLP-II]	did not show any stimulation	did not displace this binding	
glucagon-like peptide-I [GLP-I]	did not show any stimulation	did not displace this binding	
PACAP-27	stimulated intracellular cAMP formation in a dose dependent manner	complete displacement of ^125 I-VIP binding to the recombinant PACAP/VIP R-2 was not obtainable at high PACAP-27 concentration	peptide concentration at maximum stimulation of cAMP levels [1]: 100 nM; IC50 ([2]; read-out: ID50, displacement of 125I-VIP binding, 125I-VIP 44 pM, whole CHL cells, 15-18 hour at 4° C., VIP and PACAP-27 values estimated (incomplete displacement)): 37 nM
glucagon: glucagon	did not show any stimulation	did not displace this binding	
PACAP-38: 38-amino acid form of pituitary adenylate cyclase activating polypeptide; synthetic, purchased from Peninsula	stimulated intracellular cAMP formation in a dose dependent manner	displaced in a dose dependent manner	cAMP response at supraphysiological concentration ([1]; 1 μM PACAP-38): sharp drop to baseline levels; peptide concentration at maximum stimulation of cAMP levels [1]: 100 nM; change of intracellular cAMP in vector-transfected cells [4]: No change of intracellular cAMP was detected; relative affinity for the receptor (in words) ([2]; competitive binding, whole cells): higher affinity than PACAP-27; also recorded: slightly higher affinity for PACAP-38 than for VIP; stimulation of insulin secretion [5]: ability to stimulate insulin secretion
